In patent US20140087995A1 (published 2014):
Numbered stars: 1 amine (or outer) side, 2 acyl side, 3 side chain; on linkers, the order of the positions; unused ones are H or OH. Bridge positions count the residues as written; N and C are the ends. Side chains are listed from the residue outwards. Ends that are not written are not given here. * marks the point of attachment. C20 diacid = O=C(O)CCCCCCCCCCCCCCCCCCC(=O)*; γGlu = O=C(O)[C@H](CCC(=O)[*:2])N[*:1]; AEEA = NCCOCCOCC(=O)O

T1: human amylin receptor (amylin 3(a) receptor: human calcitonin receptor plus RAMP-3) (human, UniProt P30988 25-474; O60896 24-148, limits assumed)
T1 sequence (looked up) 1: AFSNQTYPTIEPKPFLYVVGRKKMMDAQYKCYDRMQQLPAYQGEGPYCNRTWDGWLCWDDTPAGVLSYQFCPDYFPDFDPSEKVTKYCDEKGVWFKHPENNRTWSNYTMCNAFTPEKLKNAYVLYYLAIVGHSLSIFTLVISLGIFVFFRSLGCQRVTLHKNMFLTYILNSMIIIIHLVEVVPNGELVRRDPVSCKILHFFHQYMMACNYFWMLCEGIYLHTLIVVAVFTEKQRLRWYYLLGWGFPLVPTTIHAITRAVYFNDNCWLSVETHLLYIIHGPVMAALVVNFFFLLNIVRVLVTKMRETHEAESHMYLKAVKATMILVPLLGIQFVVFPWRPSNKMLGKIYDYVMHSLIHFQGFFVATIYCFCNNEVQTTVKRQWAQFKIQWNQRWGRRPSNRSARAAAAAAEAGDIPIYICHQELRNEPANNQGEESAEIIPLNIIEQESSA
T1 sequence (looked up) 2: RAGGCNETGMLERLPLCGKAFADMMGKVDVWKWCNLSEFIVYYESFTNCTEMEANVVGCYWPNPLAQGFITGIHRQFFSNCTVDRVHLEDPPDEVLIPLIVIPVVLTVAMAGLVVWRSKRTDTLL

T2: human calcitonin receptor (human, UniProt P30988 25-474)
T2 sequence (looked up): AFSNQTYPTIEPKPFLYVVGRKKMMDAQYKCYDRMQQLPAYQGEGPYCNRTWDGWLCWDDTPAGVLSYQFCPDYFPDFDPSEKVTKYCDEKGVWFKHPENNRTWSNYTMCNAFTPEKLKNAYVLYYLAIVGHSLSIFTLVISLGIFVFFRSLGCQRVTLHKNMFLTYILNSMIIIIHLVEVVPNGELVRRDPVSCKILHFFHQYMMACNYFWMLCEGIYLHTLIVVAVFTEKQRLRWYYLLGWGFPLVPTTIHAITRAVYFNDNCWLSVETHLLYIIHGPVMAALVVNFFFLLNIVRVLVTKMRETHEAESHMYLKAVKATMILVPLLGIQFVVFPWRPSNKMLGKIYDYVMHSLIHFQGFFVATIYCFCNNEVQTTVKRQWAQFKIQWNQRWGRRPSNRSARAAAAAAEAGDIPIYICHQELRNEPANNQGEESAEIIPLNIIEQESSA


Key:
[1] = biological target: T1, human amylin receptor (amylin 3(a) …); experiment: cell-based or functional assay
[2] = biological target: T2, human calcitonin receptor; experiment: cell-based or functional assay

Row | Binder | Ratio hCT/hAmylin funct. [1] | hAmylin-R funct. EC50 [1] | hCTR funct. EC50 [2]
1 | K([AEEA-γGlu-C20 diacid])CNTATCATQRLANFLRHSSPNFGAIPSSTPVGSNTY-NH2 (disulfide 2-7; N-terminus assumed; SMILES CC[C@H](C)[C@H](NC(=O)[C@H](C)NC(=O)CNC(=O)[C@H](Cc1ccccc1)NC(=O)[C@H](CC(N)=O)NC(=O)[C@@H]1CCCN1C(=O)[C@H](CO)NC(=O)[C@H](CO)NC(=O)[C@H](Cc1c[nH]cn1)NC(=O)[C@H](CCCNC(=N)N)NC(=O)[C@H](CC(C)C)NC(=O)[C@H](Cc1ccccc1)NC(=O)[C@H](CC(N)=O)NC(=O)[C@H](C)NC(=O)[C@H](CC(C)C)NC(=O)[C@H](CCCNC(=N)N)NC(=O)[C@H](CCC(N)=O)NC(=O)[C@@H](NC(=O)[C@H](C)NC(=O)[C@@H]1CSSC[C@H](NC(=O)[C@@H](N)CCCCNC(=O)COCCOCCNC(=O)CC[C@H](NC(=O)CCCCCCCCCCCCCCCCCCC(=O)O)C(=O)O)C(=O)N[C@@H](CC(N)=O)C(=O)N[C@@H]([C@@H](C)O)C(=O)N[C@@H](C)C(=O)N[C@@H]([C@@H](C)O)C(=O)N1)[C@@H](C)O)C(=O)N1CCC[C@H]1C(=O)N[C@@H](CO)C(=O)N[C@@H](CO)C(=O)N[C@H](C(=O)N1CCC[C@H]1C(=O)N[C@H](C(=O)NCC(=O)N[C@@H](CO)C(=O)N[C@@H](CC(N)=O)C(=O)N[C@H](C(=O)N[C@@H](Cc1ccc(O)cc1)C(N)=O)[C@@H](C)O)C(C)C)[C@@H](C)O, Synthetic acylated analogue of human amylin; also called compound 49) | 22.5 ratio | 0.106 nM | 2.39 nM
2 | K([γGlu-C20 diacid])CNTATCATQRLAEFLRHSSPNFGAIPSSTNVGSRTY-NH2 (disulfide 2-7; N-terminus assumed; SMILES CC[C@H](C)[C@H](NC(=O)[C@H](C)NC(=O)CNC(=O)[C@H](Cc1ccccc1)NC(=O)[C@H](CC(N)=O)NC(=O)[C@@H]1CCCN1C(=O)[C@H](CO)NC(=O)[C@H](CO)NC(=O)[C@H](Cc1c[nH]cn1)NC(=O)[C@H](CCCNC(=N)N)NC(=O)[C@H](CC(C)C)NC(=O)[C@H](Cc1ccccc1)NC(=O)[C@H](CCC(=O)O)NC(=O)[C@H](C)NC(=O)[C@H](CC(C)C)NC(=O)[C@H](CCCNC(=N)N)NC(=O)[C@H](CCC(N)=O)NC(=O)[C@@H](NC(=O)[C@H](C)NC(=O)[C@@H]1CSSC[C@H](NC(=O)[C@@H](N)CCCCNC(=O)CC[C@H](NC(=O)CCCCCCCCCCCCCCCCCCC(=O)O)C(=O)O)C(=O)N[C@@H](CC(N)=O)C(=O)N[C@@H]([C@@H](C)O)C(=O)N[C@@H](C)C(=O)N[C@@H]([C@@H](C)O)C(=O)N1)[C@@H](C)O)C(=O)N1CCC[C@H]1C(=O)N[C@@H](CO)C(=O)N[C@@H](CO)C(=O)N[C@H](C(=O)N[C@@H](CC(N)=O)C(=O)N[C@H](C(=O)NCC(=O)N[C@@H](CO)C(=O)N[C@@H](CCCNC(=N)N)C(=O)N[C@H](C(=O)N[C@@H](Cc1ccc(O)cc1)C(N)=O)[C@@H](C)O)C(C)C)[C@@H](C)O, Synthetic acylated analogue of human amylin; also called compound 51) | 14 ratio | 0.372 nM | 5.22 nM
3 | K([γGlu-γGlu-C20 diacid])CNTATCATQRLADFLRHSSPNFGAPLSSTNVGSDTY-NH2 (disulfide 2-7; N-terminus assumed; SMILES CC(C)C[C@H](NC(=O)[C@H](CCCNC(=N)N)NC(=O)[C@H](CCC(N)=O)NC(=O)[C@@H](NC(=O)[C@H](C)NC(=O)[C@@H]1CSSC[C@H](NC(=O)[C@@H](N)CCCCNC(=O)CC[C@H](NC(=O)CC[C@H](NC(=O)CCCCCCCCCCCCCCCCCCC(=O)O)C(=O)O)C(=O)O)C(=O)N[C@@H](CC(N)=O)C(=O)N[C@@H]([C@@H](C)O)C(=O)N[C@@H](C)C(=O)N[C@@H]([C@@H](C)O)C(=O)N1)[C@@H](C)O)C(=O)N[C@@H](C)C(=O)N[C@@H](CC(=O)O)C(=O)N[C@@H](Cc1ccccc1)C(=O)N[C@@H](CC(C)C)C(=O)N[C@@H](CCCNC(=N)N)C(=O)N[C@@H](Cc1c[nH]cn1)C(=O)N[C@@H](CO)C(=O)N[C@@H](CO)C(=O)N1CCC[C@H]1C(=O)N[C@@H](CC(N)=O)C(=O)N[C@@H](Cc1ccccc1)C(=O)NCC(=O)N[C@@H](C)C(=O)N1CCC[C@H]1C(=O)N[C@@H](CC(C)C)C(=O)N[C@@H](CO)C(=O)N[C@@H](CO)C(=O)N[C@H](C(=O)N[C@@H](CC(N)=O)C(=O)N[C@H](C(=O)NCC(=O)N[C@@H](CO)C(=O)N[C@@H](CC(=O)O)C(=O)N[C@H](C(=O)N[C@@H](Cc1ccc(O)cc1)C(N)=O)[C@@H](C)O)C(C)C)[C@@H](C)O, Synthetic acylated analogue of human amylin; also called compound 1) | 12 ratio | 0.224 nM | 2.7 nM
4 | K([γGlu-C20 diacid])CNTATCATQRLANFLRHSSPNFGAIPSSTNVGSETY-NH2 (disulfide 2-7; N-terminus assumed; SMILES CC[C@H](C)[C@H](NC(=O)[C@H](C)NC(=O)CNC(=O)[C@H](Cc1ccccc1)NC(=O)[C@H](CC(N)=O)NC(=O)[C@@H]1CCCN1C(=O)[C@H](CO)NC(=O)[C@H](CO)NC(=O)[C@H](Cc1c[nH]cn1)NC(=O)[C@H](CCCNC(=N)N)NC(=O)[C@H](CC(C)C)NC(=O)[C@H](Cc1ccccc1)NC(=O)[C@H](CC(N)=O)NC(=O)[C@H](C)NC(=O)[C@H](CC(C)C)NC(=O)[C@H](CCCNC(=N)N)NC(=O)[C@H](CCC(N)=O)NC(=O)[C@@H](NC(=O)[C@H](C)NC(=O)[C@@H]1CSSC[C@H](NC(=O)[C@@H](N)CCCCNC(=O)CC[C@H](NC(=O)CCCCCCCCCCCCCCCCCCC(=O)O)C(=O)O)C(=O)N[C@@H](CC(N)=O)C(=O)N[C@@H]([C@@H](C)O)C(=O)N[C@@H](C)C(=O)N[C@@H]([C@@H](C)O)C(=O)N1)[C@@H](C)O)C(=O)N1CCC[C@H]1C(=O)N[C@@H](CO)C(=O)N[C@@H](CO)C(=O)N[C@H](C(=O)N[C@@H](CC(N)=O)C(=O)N[C@H](C(=O)NCC(=O)N[C@@H](CO)C(=O)N[C@@H](CCC(=O)O)C(=O)N[C@H](C(=O)N[C@@H](Cc1ccc(O)cc1)C(N)=O)[C@@H](C)O)C(C)C)[C@@H](C)O, Synthetic acylated analogue of human amylin; also called compound 27) [N^ε1-[(4S)-4-carboxy-4-(19-carboxynonadecanoylamino)butanoyl]-[Arg17,Pro21,Pro27,Glu35]-h-amylin] | 22.6 ratio | 0.133 nM | 3 nM

Other lines, results leading:

Row | Ratio hCT/hAmylin funct. [1] | hAmylin-R funct. EC50 [1] | hCTR funct. EC50 [2] | Binder
5 | 17.4 ratio | 0.038 nM | 0.662 nM | K([AEEA-γGlu-C20 diacid])CNTATCATQRLANFLRHSSPNFGAIPSSTNVGPNTY-NH2 (disulfide 2-7; N-terminus assumed; SMILES CC[C@H](C)[C@H](NC(=O)[C@H](C)NC(=O)CNC(=O)[C@H](Cc1ccccc1)NC(=O)[C@H](CC(N)=O)NC(=O)[C@@H]1CCCN1C(=O)[C@H](CO)NC(=O)[C@H](CO)NC(=O)[C@H](Cc1c[nH]cn1)NC(=O)[C@H](CCCNC(=N)N)NC(=O)[C@H](CC(C)C)NC(=O)[C@H](Cc1ccccc1)NC(=O)[C@H](CC(N)=O)NC(=O)[C@H](C)NC(=O)[C@H](CC(C)C)NC(=O)[C@H](CCCNC(=N)N)NC(=O)[C@H](CCC(N)=O)NC(=O)[C@@H](NC(=O)[C@H](C)NC(=O)[C@@H]1CSSC[C@H](NC(=O)[C@@H](N)CCCCNC(=O)COCCOCCNC(=O)CC[C@H](NC(=O)CCCCCCCCCCCCCCCCCCC(=O)O)C(=O)O)C(=O)N[C@@H](CC(N)=O)C(=O)N[C@@H]([C@@H](C)O)C(=O)N[C@@H](C)C(=O)N[C@@H]([C@@H](C)O)C(=O)N1)[C@@H](C)O)C(=O)N1CCC[C@H]1C(=O)N[C@@H](CO)C(=O)N[C@@H](CO)C(=O)N[C@H](C(=O)N[C@@H](CC(N)=O)C(=O)N[C@H](C(=O)NCC(=O)N1CCC[C@H]1C(=O)N[C@@H](CC(N)=O)C(=O)N[C@H](C(=O)N[C@@H](Cc1ccc(O)cc1)C(N)=O)[C@@H](C)O)C(C)C)[C@@H](C)O, Synthetic acylated analogue of human amylin; also called compound 50)
6 | 15 ratio | 0.364 nM | 5.46 nM | K([γGlu-C20 diacid])CNTATCATQRLANFLRHSSPNFGAIPSSTNVGSKTY-NH2 (disulfide 2-7; N-terminus assumed; SMILES CC[C@H](C)[C@H](NC(=O)[C@H](C)NC(=O)CNC(=O)[C@H](Cc1ccccc1)NC(=O)[C@H](CC(N)=O)NC(=O)[C@@H]1CCCN1C(=O)[C@H](CO)NC(=O)[C@H](CO)NC(=O)[C@H](Cc1c[nH]cn1)NC(=O)[C@H](CCCNC(=N)N)NC(=O)[C@H](CC(C)C)NC(=O)[C@H](Cc1ccccc1)NC(=O)[C@H](CC(N)=O)NC(=O)[C@H](C)NC(=O)[C@H](CC(C)C)NC(=O)[C@H](CCCNC(=N)N)NC(=O)[C@H](CCC(N)=O)NC(=O)[C@@H](NC(=O)[C@H](C)NC(=O)[C@@H]1CSSC[C@H](NC(=O)[C@@H](N)CCCCNC(=O)CC[C@H](NC(=O)CCCCCCCCCCCCCCCCCCC(=O)O)C(=O)O)C(=O)N[C@@H](CC(N)=O)C(=O)N[C@@H]([C@@H](C)O)C(=O)N[C@@H](C)C(=O)N[C@@H]([C@@H](C)O)C(=O)N1)[C@@H](C)O)C(=O)N1CCC[C@H]1C(=O)N[C@@H](CO)C(=O)N[C@@H](CO)C(=O)N[C@H](C(=O)N[C@@H](CC(N)=O)C(=O)N[C@H](C(=O)NCC(=O)N[C@@H](CO)C(=O)N[C@@H](CCCCN)C(=O)N[C@H](C(=O)N[C@@H](Cc1ccc(O)cc1)C(N)=O)[C@@H](C)O)C(C)C)[C@@H](C)O, Synthetic acylated analogue of human amylin; also called compound 35) [N^ε1-[(4S)-4-carboxy-4-(19-carboxynonadecanoylamino)butanoyl]-[Arg17,Pro21,Pro27,Lys35]-h-amylin]
